Measurements reported in patent US20240166695A1, “PEPTIDIC POSITIVE ALLOSTERIC MODULATORS TARGETING TRPV1” (priority 2021, published 2024).

Legend:
TRPV1 channel [1] = test: FRET imaging of TRPV1-YFP and design-CFP co-expressed in HEK293 cells; format: binding; settings: for FRET ratio max: HEK293 cells; for FRET signal between design-CFP and TRPV1-YFP: co-expressed in cells; for FRET efficiency: spectraFRET, design-CFP and TRPV1-YFP
Source text: Any design candidate can be assessed for the ability to bind TRPV1 using techniques including, but not limited to, the FRET protocols and SPR protocols described herein. For example, complementary fluorescent proteins (including, but not limited to, GFP CFP, YFP, and the like) may be fused recombinantly to a designed peptide and to TRPV1 for assessment of TRPV1 binding via FRET. In some non-limiting embodiments, binding of a candidate modulator to TRPV1 can be confirmed by observing a FRET ratio max of at least 1.25 when YFP is fused to the C-terminus of TRPV1, CFP is fused to the C-termini of a candidate peptide. In some embodiments, binding of a candidate modulator to TRPV1 can be confirmed by observing a FRET efficiency greater than about 4% (e.g., at least 5%, or at least 7%) when YFP is fused to the C-terminus of TRPV1, CFP is fused to the C-termini of a candidate peptide. FRET measurements can be made by co-expressing the FRET-labeled constructs in host cells, exciting the CFP construct in the host cells at 458 inn, and observing YFP emission at 530 nm. CFP emission can be separated from YFP emission by fitting of standard spectra acquired from cells expressing YFP or CFP only.
FRET efficiency is defined in its usual definition; it is inversely related to the sixth power of the distance between complementary fluorescent proteins on the binding partners. FRET efficiency is quantified from measurements of the fluorescence emission spectra, using the established method.
FRET ratios can be calculated from the increase in YFP emission due to energy transfer as described previously (Qiu, et al. J. Biol. Chem. 2005, 280, 24923, incorporated herein by reference in its entirety). CFP emission can be separated from YFP emission by fitting of standard spectra acquired from cells expressing only YFP or CFP. The fraction of YFP-tagged molecules that are associated with CFP-tagged molecules, Ab, is calculated as Ab=1/(1+KD/[Dfree]), where KD is the dissociation constant and [Dfree] is the concentration of free donor molecules. The FRET Ratio=1+Ab*(FRET Ratiomax−1). Regression analysis can be used to estimate Ab in individual cells. From each cell, the FRET ratioexp is experimentally determined. The predicted Ab value is then computed by adjusting two parameters, FRET Ratiomax, and apparent KD Ab was in turn used to give a predicted FRET ratiopredicted. By minimizing the squared errors (FRET ratioexp. FRET ratiopredicted)^2, KD was determined.
Apparent FRET efficiency can be calculated from the enhancement of YFP acceptor fluorescence emission due to energy transfer from the CFP donor using previously described methods. [see, e.g., Yang and Zheng, et al. Proc. Natl. Acad. Sci. U.S.A. 2010, 107 7083, which is incorporated herein by reference]. RatioA0, and RatioA1, are measured to calculate FRET efficiency. RatioA0, represents the ratio between acceptor emission intensities (in the absence of the donor) upon excitation at the donor and acceptor excitation wavelengths, and can be calculated at the YFP peak emission wavelength. A particular advantage of quantifying RatioA0 for FRET measurement is that changes in fluorescence intensity caused by many experimental factors cap be cancelled out by the ratiometric measurement:
To experimentally test whether our designed proteins work as PAM of TRPV1, we first tested whether they could interact with TRPV1 channel in live cells. We genetically fused YFP and CFP to the C termini of TRPV1 and our designs, respectively.
For spectroscopic imaging in FRET experiments, the imaging system was built upon a Nikon TE2000-U microscope. The excitation light was generated by an Ar laser. The duration of light exposure was controlled by a computer-driven mechanical shutter (Uniblitz). A spectrograph (Acton SpectraPro 2150i) was used in conjunction with a CCD camera (Roper Cascade 128B). […]

ARD of TRPV1 = target: T1, ARD of TRPV1 (Rattus norvegicus, UniProt O35433); test: Surface plasmon resonance, ARD immobilized on CM5 sensor chip; format: binding; settings: protein boiled to disrupt three-dimensional structure
T1 construct: made in house; host or cells: E. coli BL21 (DE3), pET-32a
T1 sequence (O35433 with tags, fused parts or gaps): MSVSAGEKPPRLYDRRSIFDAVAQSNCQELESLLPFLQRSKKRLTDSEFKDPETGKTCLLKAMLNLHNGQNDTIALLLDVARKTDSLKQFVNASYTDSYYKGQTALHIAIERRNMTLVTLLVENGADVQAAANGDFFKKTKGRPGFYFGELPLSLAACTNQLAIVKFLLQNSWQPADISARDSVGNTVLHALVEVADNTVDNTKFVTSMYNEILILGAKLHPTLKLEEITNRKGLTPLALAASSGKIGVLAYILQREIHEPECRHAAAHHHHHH
Source text: To further quantify the binding affinity of the designs to the ARD, we expressed and purified both designed proteins and the ARD in E. coli. The DNA sequence of each designed protein and the ARD of TRPV1 (see their primary protein sequences in Table 6) was synthesized and inserted into the pET-32a plasmid after codon optimization for protein expression in bacteria E. coli BL21 (DE3) was transformed with the recombinant plasmids. A single colony was inoculated into media containing ampicillin; cultures were incubated in 37° C. at 200 rpm. Once cell density reached to OD 0.8-1.0 at 600 inn, IPTG was introduced for induction. SDS-PAGE was used to monitor the expression. […] The protein expression was stopped by centrifugation at 8000 rpm for 30 min. We collected cells and resuspended in resuspension solution containing 50 mM Tris-HCl, 150 mM NaCl, 10% glycerol and protease inhibitor (pH 7.4). The cells were lysed by sonication. The supernatant after centrifugation was kept for future purifications. Taget proteins were obtained by Ni column, and then further purified by the reversed phase HPLC on a Jupiter C4 column (10×250 mm, Phenomenex, Torrance, CA, USA). […]
We then quantified the binding of De1 and De3 to the ARD protein fixed on the sensor chip by surface plasma resonance (SPR) (FIGS. 6A and 6B). […] Steady-state SPR responses were measured and used to determine the KD values. […]

TRPV1 [2] = test: Calcium imaging (Fluo-4) of capsaicin activation in transfected HEK293 cells; format: cell-based; settings: 0.5 nM capsaicin; design co-expressed with TRPV1
Description: We then investigated whether, upon binding of the designed proteins, TRPV1 activation was positively modulated. […] Probenecid (2 mM) was included in all solutions to prevent Fluo-4 leakage from cells. At the end of incubation, cells were washed three times with ECS and incubated in the same solution for another 20 min at room temperature to complete the intracellular hydrolysis process of the AM ester, which converts the non-fluorescent Fluo-4/AM into the fluorescent version Fluo-4.
Coverslip with dye-loaded cells was placed in the quick-release magnetic chamber (Warner) and mounted on the stage of a Nikon Eclipse TE2000-U microscope system equipped with a Roper Cascade 128B CCD camera. Fluo-4 was excited by an Argon laser with a filter set of Z488/10 (excitation), z488rdc (dichroic) and recorded through an emission filter HQ5001p (all from Chroma). The duration of light exposure was controlled by a computer-driven mechanical shutter (Uniblitz). Cell images were acquired sequentially with an exposure period of 200 ms at an interval of 1 s. The shutter and the camera were controlled and synchronized by MetaMorph software (Universal Imaging).

TRPV1 [3] = target: T2, TRPV1 (UniProt Q704Y3); test: Whole-cell patch-clamp recordings of capsaicin activation, desensitization and tachyphylaxis; format: cell-based; settings: design co-expressed with TRPV1; for acute current desensitization upon capsaicin activation: extracellular calcium present
T2 construct: other: TRPV1 alone; absence of extracellular calcium; other: design co-expressed with TRPV1; extracellular calcium p; repeated caps; fused on or other part: Possibly YFP at the C-terminus
Description: Patch-clamp recordings were performed with a HEKA EPC10 amplifier controlled by PatchMaster software (HEKA). Whole-cell recordings at ±80 mV were used to test whether an ANAP-incorporated channel was functional. Patch pipettes were prepared from borosilicate glass and fire-polished to resistance of ˜4 MΩ. For whole-cell recording, serial resistance was compensated by 60%. A solution with […], 10 mM glucose, 0.2 mM EDTA and 3 mM HEPES (pH 7.2) was used in both bath and pipette for concentration response curve measurements in TRPV1, TRPV2 and TRPV3. To measure calcium-dependent ligand-induced desensitization and tachyphylaxis, 2 mM CaCl2 was added to the solution. Membrane potential was clamped at ±80 mV. Current was sampled at 10 kHz and filtered at 2.9 kHz. All recordings were performed at room temperature (22° C.) with the maximum variation of 1° C.
Ligands were perfused to membrane patch by a gravity-driven system (RSC-200, Bio-Logic). Bath and ligand solution were delivered through separate tubes to minimize the mixing of solutions. Patch pipette was placed in front of the perfusion tube outlet.

TRPV1 channel [4] = test: Airyscan super resolution imaging of TRPV1-YFP and De1-CFP in HEK293 cells; format: cell-based; settings: co-transfected HEK293 cells
Description: Super-resolution fluorescence microscopy was performed with the Zeiss LSM 880 fluorescence microscope with Airyscan. YFP fused to TRPV1 and CFP fused to the designed proteins were excited by laser line at 488 nm and 458 nm, respectively. We used a 60× oil-immersion objective (NA 1.42) in these experiments. Fluorescence imaging was performed with the default settings for CFP and YFP channels in the microscope controlled by the Zeiss ZEN software. Overlay of YFP- and CFP-channel images was also done in ZEN.

Molecule	FRET ratio max (TRPV1 channel [1])	FRET signal between design-CFP and TRPV1-YFP (TRPV1 channel [1])	binding with the ARD after boiling of the protein (ARD of TRPV1)	activation of TRPV1 by low capsaicin concentration when co-expressed with design (TRPV1 [2])	acute current desensitization upon capsaicin activation (TRPV1 [3])	capsaicin induced tachyphylaxis (TRPV1 [3]; repeated capsaicin application)	co-localization with TRPV1 on cell membrane (TRPV1 channel [4])	FRET efficiency (TRPV1 channel [1]) [%]
De1: designed 93-residue protein binder to TRPV1 ARD, scaffold 1QZM, SEQ ID NO: 8 (protein) NGYSSEDKLRIAKRHLLPKQIERNALKKGELFVSEFAILGIILFYTDEAGVRGLEREISKLCRKAVKQLLLDKSTTSSHASGFHLHDYLGVMR	3.86	positive FRET signals	completely abolished	sufficient to activate TRPV1 channels	significantly slowed down	capsaicin induced tachyphylaxis was reduced	clear co-localization	
De2: optimized version of De1, 93 residues, scaffold 1QZM, SEQ ID NO: 37 (protein) NGYWSEDKERIAKRHLLPKQIERNALKKGELKVWEFAIFGIILFYTWEAGVRGLEREISKLCRKAVKQLLLDKSTTRSWASGFHLHDYLGVMR	2.35	positive FRET signals			no such an effect was observed			7.4
De4: design on scaffold 2HDZ used as negative control because it cannot refold well, SEQ ID NO: 38 (protein) LPESPRFAQKIWQQSVIGDYLARFKNDRVKALKAMEDSSNNSSMHRFAEFFAKAFEDLHRYLEEL		no FRET occurred			no such an effect was observed			3.8
